Results as given in patent US9523084B2, “Phosphodeoxyribosyl transferase mutant enzymes and uses thereof” (Centre National De La Recherche Scientifique, priority 2012, dated 2016).
Changes are numbered by the printed parent chain. Numbers in names are those of the source.

Key:
[1] = substrate: Nc1ccn([C@H]2C[C@H](O)[C@@H](COP(=O)(O)O)O2)c(=O)n1; experiment: Kinetic parameters of PDT variants, dCMP + A ⇄ dAMP + C; format: biochemical, Lactobacillus leichmannii; details: adenine as acceptor, fixed, 37.0 °C
Experimental: (§1) The standard assay (“first protocol for enzyme assay”) for the different NDTs consisted of 5-15 μg of NDT in 50 mM MES buffer pH 6.0, dNxP (dNMP, or dNDP or dNTP) 3 mM and a base 1 mM in a total volume of 50 μL. Assays were incubated for 60 min at 37° C. The products of the reactions were analyzed each 7 min by Rapid resolution high performance liquid chromatography using a reverse-phase column (ZORBAX Eclipse XDB-C18 2.1*50 mm 1.8 μM) with a flow rate of 0.25 ml/min and a linear gradient of 1-12% CH3CN (2-25% CH3CN or 1-90% CH3CN) in 20 mM triethylammonium acetate, pH 7.5, buffer for 7 min. The low resolution mass spectra of the newly synthesized deoxyribonucleotides were obtained on an Agilent 1200 series LC/MS 6120 quadrupole system using an atmospheric electrospray ionization system.
This hypothesis was confirmed by monitoring the specific activity, in the presence of dCDP or dCTP as donor and adenine as acceptor (see table 2 above). The kinetic parameters were determined for the best variants with dCMP, dCDP and dCTP as substrates, at a concentration of A being fixed (see table 3 below).

[2] = Standard enzyme assay (HPLC): specific activities of PDT variants with natural purines and pyrimidines; format: biochemical; details: for Specific activity: donor 3 mM, acceptor 1 mM; for factor of enhancement of deoxyribose 5-phosphate transferase activity between C and A: upon substitution of F13 to arginine (PDTM3 from PDTM1, PDTM4 from PDTM2)
Experimental: as §1
Unless specifically mentioned, the results presented hereafter have been obtained by using the first protocol for performing the enzyme assay.

[3] = In vitro synthesis of deoxynucleotide analogues: specific activities; format: biochemical
Experimental: as §1
The donor concentration was 3 mM and the acceptor 1 mM except for dCTP 2 mM 5-BrU 1 mM and dAMP 2 mM 5-FU 1 mM. Activities are expressed in nanomoles of deoxynucleotides synthesized per min per mg of protein.

[4] = dAMP + 5-FU → A + 5-F-dUMP, dAMP 2 mM 5-FU 1 mM
[5] = dCMP + 2,6-D → C + 2,6-DMP, donor 3 mM, acceptor 1 mM
[6] = dCMP + 2,6-chloropurine → C + 2,6-dichloropurine 2′-deoxyribose 5′-monophosphate, donor 3 mM, acceptor 1 mM
[7] = dCMP + 5-BrU → C + 5-Br-dUMP, donor 3 mM, acceptor 1 mM
[8] = dCMP + 6-chloropurine → C + 6-chloropurine 2′-deoxyribose 5′-monophosphate, donor 3 mM, acceptor 1 mM

B1: Lactobacillus leichmannii nucleoside deoxyribosyltransferase (NDT, SEQ ID NO:1) variant PDTM3, R13 S92 (F13R/D92S), SEQ ID NO:5 (Lactobacillus leichmannii; … (protein)
chain: MPKKTIYFGAGWRTDRQNKAYKEAMEALKENPTIDLENSYVPLDNQYKGIRVDEHPEYLHDKVWATATYNNDLNGIKTNDIMLGVYIPDEESVGLGMELGYALSQGKYVLLVIPDEDYGKPINLMSWGVSDNVIKMSQLKDFNFNKPRFDFYEGAVY
notes: homohexamer (108 kDa)
[1]; other: PDTM3
  Km: 22 mM
  kcat: 0.3 s⁻¹

B2: Lactobacillus leichmannii nucleoside deoxyribosyltransferase (NDT, SEQ ID NO:1) variant PDTT0, R13 G92 T93 S123 (F13R/D92G/V93T/N123S), SEQ ID NO:8 … (protein)
chain: B1 chain with S92G, V93T, N123S
notes: homohexamer (108 kDa)
[1]; other: PDTT0
  Km: 9.2 mM
  kcat: 0.45 s⁻¹

B3: PDTM1: NDT single mutant D92S, SEQ ID NO:3 (protein)
chain: B1 chain with R13F
modifications: PDTM1 enzyme mutant
[2]; dCMP + A ⇄ dAMP + C
  Specific activity: 1.8 nanomoles of deoxynucleotides synthesized per min per mg of protein

B4: PDTT0: NDT mutant R13 G92 T93 S123, SEQ ID NO:8 (protein)
chain: B1 chain with S92G, V93T, N123S
modifications: PDTT0 enzyme mutant
[2]; dAMP + C ⇄ dCMP + A
  Specific activity: 23.7 nanomoles of deoxynucleotides synthesized per min per mg of protein
[2]; dAMP + Hx ⇄ dIMP + A
  Specific activity: <0.1 nanomoles of deoxynucleotides synthesized per min per mg of protein
[2]; dCDP + A ⇄ dADP + C
  Specific activity: <0.1 nanomoles of deoxynucleotides synthesized per min per mg of protein
[2]; dCMP + A ⇄ dAMP + C
  Specific activity: 46.3 nanomoles of deoxynucleotides synthesized per min per mg of protein
[2]; dCMP + T ⇄ dTMP + C
  Specific activity: <0.1 nanomoles of deoxynucleotides synthesized per min per mg of protein
[2]; dCTP + A ⇄ dATP + C
  Specific activity: <0.1 nanomoles of deoxynucleotides synthesized per min per mg of protein
[2]; dGMP + A ⇄ dAMP + G
  Specific activity: 49 nanomoles of deoxynucleotides synthesized per min per mg of protein

B5: NDTWT: wild-type nucleoside deoxyribosyltransferase of Lactobacillus leichmannii, SEQ ID NO:1 (F13E91D92V93N123Y157) (protein, listed as Lactobacillus leichmannii)
chain: B1 chain with R13F, S92D
[2]; dCMP + A ⇄ dAMP + C
  Specific activity: 0.1 nanomoles of deoxynucleotides synthesized per min per mg of protein

B6: PDTM3: NDT mutant R13 S92, SEQ ID NO:5 (protein)
chain: B1 chain
modifications: PDTM3 enzyme mutant
[2]; dAMP + C ⇄ dCMP + A
  Specific activity: 34.7 nanomoles of deoxynucleotides synthesized per min per mg of protein
[2]; dAMP + Hx ⇄ dIMP + A
  Specific activity: 2 nanomoles of deoxynucleotides synthesized per min per mg of protein
[2]; dCMP + A ⇄ dAMP + C
  Specific activity: 79.7 nanomoles of deoxynucleotides synthesized per min per mg of protein
[2]; dCMP + T ⇄ dTMP + C
  Specific activity: 18.2 nanomoles of deoxynucleotides synthesized per min per mg of protein
[2]; dGMP + A ⇄ dAMP + G
  Specific activity: 8.5 nanomoles of deoxynucleotides synthesized per min per mg of protein
[2]; transfer of deoxyribose 5-phosphate between A and C
  fold lower activity than between C and A: two-fold
[2]; transfer of deoxyribose 5-phosphate between C and T
  fold lower activity than between C and A: 4 fold
[2]
  factor of enhancement of deoxyribose 5-phosphate transferase activity between C and A: 50

B7: PDTM5: NDT mutant Q13 S92 S123, SEQ ID NO:7 (protein)
chain: B1 chain with R13Q, N123S
modifications: PDTM5 enzyme mutant
[2]; dAMP + C ⇄ dCMP + A
  Specific activity: 206 nanomoles of deoxynucleotides synthesized per min per mg of protein
[2]; dAMP + Hx ⇄ dIMP + A
  Specific activity: <0.1 nanomoles of deoxynucleotides synthesized per min per mg of protein
[2]; dCMP + A ⇄ dAMP + C
  Specific activity: 296 nanomoles of deoxynucleotides synthesized per min per mg of protein
[2]; dCMP + T ⇄ dTMP + C
  Specific activity: 1.7 nanomoles of deoxynucleotides synthesized per min per mg of protein
[2]; dGMP + A ⇄ dAMP + G
  Specific activity: 81 nanomoles of deoxynucleotides synthesized per min per mg of protein
[3]; [4]
  Specific activity: 47 nanomoles of deoxynucleotides synthesized per min per mg of protein
[3]; [5]
  Specific activity: 78 nanomoles of deoxynucleotides synthesized per min per mg of protein
[3]; [6]
  Specific activity: 19 nanomoles of deoxynucleotides synthesized per min per mg of protein
[3]; [7]
  Specific activity: 26 nanomoles of deoxynucleotides synthesized per min per mg of protein
[3]; [8]
  Specific activity: 15 nanomoles of deoxynucleotides synthesized per min per mg of protein

B8: Lactobacillus leichmannii nucleoside deoxyribosyltransferase (NDT, SEQ ID NO:1) variant PDTM5, Q13 S92 S123 (F13Q/D92S/N123S), SEQ ID NO:7 (Lactobacillus … (protein)
chain: B1 chain with R13Q, N123S
notes: homohexamer (108 kDa)
[1]; other: PDTM5
  Km: 12 mM
  kcat: 1.99 s⁻¹

B9: PDTT1: NDT mutant R13 G92 T93 S123 K157, SEQ ID NO:9 (protein)
chain: B1 chain with S92G, V93T, N123S, Y157K
modifications: PDTT1 enzyme mutant
[2]; dADP + C ⇄ dCDP + A
  Specific activity: 12 nanomoles of deoxynucleotides synthesized per min per mg of protein
[2]; dADP + Hx ⇄ dIDP + A
  Specific activity: <0.1 nanomoles of deoxynucleotides synthesized per min per mg of protein
[2]; dAMP + C ⇄ dCMP + A
  Specific activity: 5 nanomoles of deoxynucleotides synthesized per min per mg of protein
[2]; dAMP + Hx ⇄ dIMP + A
  Specific activity: <0.1 nanomoles of deoxynucleotides synthesized per min per mg of protein
[2]; dATP + C ⇄ dCTP + A
  Specific activity: 1 nanomoles of deoxynucleotides synthesized per min per mg of protein
[2]; dATP + Hx ⇄ dITP + A
  Specific activity: <0.1 nanomoles of deoxynucleotides synthesized per min per mg of protein
[2]; dCDP + A ⇄ dADP + C
  Specific activity: 31 nanomoles of deoxynucleotides synthesized per min per mg of protein
[2]; dCDP + U ⇄ dUDP + C (U used as acceptor base instead of T)
  Specific activity: 6 nanomoles of deoxynucleotides synthesized per min per mg of protein
[2]; dCMP + A ⇄ dAMP + C
  Specific activity: 78 nanomoles of deoxynucleotides synthesized per min per mg of protein
[2]; dCMP + T ⇄ dTMP + C
  Specific activity: <0.1 nanomoles of deoxynucleotides synthesized per min per mg of protein
[2]; dCTP + A ⇄ dATP + C
  Specific activity: 10 nanomoles of deoxynucleotides synthesized per min per mg of protein
[2]; dCTP + T ⇄ dTTP + C
  Specific activity: 1 nanomoles of deoxynucleotides synthesized per min per mg of protein
[2]; dGDP + A ⇄ dADP + G
  Specific activity: 15 nanomoles of deoxynucleotides synthesized per min per mg of protein
[2]; dGMP + A ⇄ dAMP + G
  Specific activity: 32 nanomoles of deoxynucleotides synthesized per min per mg of protein
[2]; dGTP + A ⇄ dATP + G
  Specific activity: 25 nanomoles of deoxynucleotides synthesized per min per mg of protein

B10: PDTM2: NDT double mutant D92S, N123S, SEQ ID NO:4 (protein)
chain: B1 chain with R13F, N123S
modifications: PDTM2 enzyme mutant
[2]; dCMP + A ⇄ dAMP + C
  Specific activity: 1.7 nanomoles of deoxynucleotides synthesized per min per mg of protein

B11: Lactobacillus leichmannii nucleoside deoxyribosyltransferase (NDT, SEQ ID NO:1) variant PDTM4, R13 S92 S123 (F13R/D92S/N123S), SEQ ID NO:6 (Lactobacillus … (protein)
chain: B1 chain with N123S
notes: homohexamer (108 kDa)
[1]; other: PDTM4
  Km: 11 mM
  kcat: 2.1 s⁻¹

B12: PDTM4: NDT mutant R13 S92 S123, SEQ ID NO:6 (protein)
chain: B1 chain with N123S
modifications: PDTM4 enzyme mutant
[2]; dAMP + C ⇄ dCMP + A
  Specific activity: 77.6 nanomoles of deoxynucleotides synthesized per min per mg of protein
[2]; dAMP + Hx ⇄ dIMP + A
  Specific activity: <0.1 nanomoles of deoxynucleotides synthesized per min per mg of protein
[2]; dCMP + A ⇄ dAMP + C
  Specific activity: 170 nanomoles of deoxynucleotides synthesized per min per mg of protein
[2]; dCMP + T ⇄ dTMP + C
  Specific activity: 52 nanomoles of deoxynucleotides synthesized per min per mg of protein
[2]; dGMP + A ⇄ dAMP + G
  Specific activity: 57 nanomoles of deoxynucleotides synthesized per min per mg of protein
[2]
  factor of enhancement of deoxyribose 5-phosphate transferase activity between C and A: 50
[2]; whatever the couple of bases tested
  activity relative to PDTM3: two times more active than PDTM3
[3]; [4]
  Specific activity: 43 nanomoles of deoxynucleotides synthesized per min per mg of protein
[3]; [5]
  Specific activity: 96 nanomoles of deoxynucleotides synthesized per min per mg of protein
[3]; [6]
  Specific activity: 32 nanomoles of deoxynucleotides synthesized per min per mg of protein
[3]; [7]
  Specific activity: 35 nanomoles of deoxynucleotides synthesized per min per mg of protein
[3]; [8]
  Specific activity: 24 nanomoles of deoxynucleotides synthesized per min per mg of protein
